Reference: PMC10591846 (Cell reports, 2023)
Where no end group is shown, it is not given here. The star is where a group is joined. Biotin = O=C1N[C@H]2[C@H](CS[C@H]2CCCCC(=O)*)N1

Assays:
Test in all cases: AlphaScreen or HTRF
GST-Pirh2_(15-195) = target: T1, GST-Pirh2_(15-195) (human, UniProt Q96PM5 15-195)
T1 sequence: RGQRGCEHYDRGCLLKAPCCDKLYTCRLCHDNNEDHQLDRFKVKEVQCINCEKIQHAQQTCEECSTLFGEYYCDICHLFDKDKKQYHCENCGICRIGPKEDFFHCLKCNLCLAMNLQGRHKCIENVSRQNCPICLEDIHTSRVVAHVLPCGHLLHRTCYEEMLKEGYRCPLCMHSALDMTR

GST-Pirh2_(1–195) = target: T2, GST-Pirh2_(1–195) (human, UniProt Q96PM5 1-195)
T2 sequence: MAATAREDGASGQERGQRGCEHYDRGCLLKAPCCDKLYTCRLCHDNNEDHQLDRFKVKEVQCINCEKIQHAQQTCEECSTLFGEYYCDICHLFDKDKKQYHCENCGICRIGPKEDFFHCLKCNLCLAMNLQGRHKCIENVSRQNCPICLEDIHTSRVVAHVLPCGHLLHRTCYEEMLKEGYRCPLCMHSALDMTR

[1] = target: GST-KLHDC10 (full length) with Elongin B/C (human | , UniProt Q6PID8 1-442; Q15370 1-104; Q15369 1-112)
Chain of GST-KLHDC10 (full length) with Elongin B/C (Q6PID8 whole entry, chain 1 of 2): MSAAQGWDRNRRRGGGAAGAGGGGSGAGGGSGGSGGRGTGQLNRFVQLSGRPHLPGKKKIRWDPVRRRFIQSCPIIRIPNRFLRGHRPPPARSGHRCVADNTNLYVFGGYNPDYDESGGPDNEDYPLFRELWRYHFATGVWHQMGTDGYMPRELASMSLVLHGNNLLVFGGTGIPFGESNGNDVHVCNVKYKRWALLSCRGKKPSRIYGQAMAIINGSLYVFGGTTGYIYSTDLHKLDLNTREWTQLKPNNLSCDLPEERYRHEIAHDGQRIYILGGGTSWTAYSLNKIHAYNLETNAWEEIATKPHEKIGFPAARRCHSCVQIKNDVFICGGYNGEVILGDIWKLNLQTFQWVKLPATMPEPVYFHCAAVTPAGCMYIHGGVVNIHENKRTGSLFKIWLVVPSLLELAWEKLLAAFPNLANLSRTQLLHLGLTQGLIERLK
Chain of GST-KLHDC10 (full length) with Elongin B/C (Q15369 whole entry, chain 3 of 2): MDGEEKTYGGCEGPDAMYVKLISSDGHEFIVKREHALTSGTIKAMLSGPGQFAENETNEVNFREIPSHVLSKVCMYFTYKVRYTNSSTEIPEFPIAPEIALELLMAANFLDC

Binder | IC50 (GST-Pirh2_(15-195)) | binding result (GST-Pirh2_(15-195)) | further results
MDELYKAAAAA | ~50 nM | – | –
LYKAAAAA | – | binds | –
MDELYKAAAAAA [MDELYKAAAAAA (Ala-tail peptide, non-biotinylated)] | 50 to 120 nM | – | IC50 (GST-Pirh2_(1–195)): 90 to 120 nM; IC50 [1]: 5 to 10 nM
DELYKAAAAA | – | binds | –
Biotin-MDELYKAAAAAA [Biotin-MDELYKAAAAAA] | – | – | binding result [1]: binds
MDELYKAAGAAA | – | – | fold reduction of binding against the Ala6 peptide (GST-Pirh2_(15-195)): 100 fold
MDELYKGAAAAA | ~60 nM | – | –
MDELYKLAAAAA | ~60 nM | – | –
MDELYKAAAAAG | ~2000 nM | – | –
MDELYKAAALAA | – | – | fold reduction of binding against the Ala6 peptide (GST-Pirh2_(15-195)): 3 fold
MDELYKAAAAAD | ~26000 nM | – | –
MDELYKAAAA | ~2000 nM | – | –
MDELYKAAAAAA-NH2 [MDELYKAAAAAA-NH2] | – | – | fold reduction of affinity against the Ala-tail peptide with free carboxyl (GST-Pirh2_(15-195)): ~2000 fold
KAAAAA | – | binds | –
ELYKAAAAA | – | binds | –
MDELAAAAA | – | binds | –
YKAAAAA | – | binds | –
